The values that follow are results of earlier work, collected in article PMC3018525.

The target of data set [1] is EGF (Homo sapiens) (UniProt P01133).
Data set [2] has the same target. This is another data set of the same source.

Read-outs that look alike come from different tables or passages of the source.

UniProt P01133, sequence (P01133 971-1023): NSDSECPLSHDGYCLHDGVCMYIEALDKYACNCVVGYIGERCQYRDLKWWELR

In the case of “EGFR (high-affinity) (from UniProt P00533)”, in data set [1], the Kd (as a rule, the concentration at which binding is half-saturated) was 0.3 nM.

“EGFR (low-affinity) (from UniProt P00533)”: the Kd in data set [2] is 2 nM.
